Source: PMC6482197, “Inhibition of HtrA2 alleviated dextran sulfate sodium (DSS)-induced colitis by preventing necroptosis of intestinal epithelial cells” (Cell Death & Disease, 2019)

Biological target: the molecule itself
Experiment: not stated; MLKL trimer formation in T/S-treated L929 cells, with or without UCF-101 (Supplementary Fig. 5)

B1: MLKL (natural protein, mouse (endogenous in L929), UniProt Q9D2Y4 1-472, looked up)
chain: MDKLGQIIKLGQLIYEQCEKMKYCRKQCQRLGNRVHGLLQPLQRLQAQGKKNLPDDITAALGRFDEVLKEANQQIEKFSKKSHIWKFVSVGNDKILFHEVNEKLRDVWEELLLLLQVYHWNTVSDVSQPASWQQEDRQDAEEDGNENMKVILMQLQISVEEINKTLKQCSLKPTQEIPQDLQIKEIPKEHLGPPWTKLKTSKMSTIYRGEYHRSPVTIKVFNNPQAESVGIVRFTFNDEIKTMKKFDSPNILRIFGICIDQTVKPPEFSIVMEYCELGTLRELLDREKDLTMSVRSLLVLRAARGLYRLHHSETLHRNISSSSFLVAGGYQVKLAGFELSKTQNSISRTAKSTKAERSSSTIYVSPERLKNPFCLYDIKAEIYSFGIVLWEIATGKIPFEGCDSKKIRELVAEDKKQEPVGQDCPELLREIINECRAHEPSQRPSVDGRSLSGRERILERLSAVEESTDKKV
notes: MLKL, endogenous in the mouse fibroblast line L929; The trimer is seen in the execution phase of necroptosis; also called mixed lineage kinase domain like pseudokinase; MLKL trimer; source: endogenous, L929 cells treated with TNF-α plus Smac mimetic (T/S)
stoichiometry N: 3
